Measured values: PMC3485628
Like-named read-outs stand apart in the source and are kept apart here.

Legend:
[1] = biological target: a commercial source of HSPG; assay: ELISA; capture antibody CSI 001-71 (anti-Pln.D1) coated, then rhPln.247 (1 ug/ml) or HSPG, then dilutions of rhBMP-2; retained BMP detected with anti-BMP antibodies; background subtracted; apparent Kd
[2] = biological target: a commercial source of HSPG; assay: as above; remark: listed apart in the source
[3] = biological target: recombinant human perlecan domain 1 proteoglycan rhPln.247 (human) (UniProt P98160); assay: as above
[4] = biological target: recombinant human perlecan domain 1 proteoglycan rhPln.247 (human) (UniProt P98160); assay: ELISA; rhPln.247 coated directly on polystyrene microtiter wells overnight at 4°C in PBS/N3 at about 1-2 ug/ml; rhBMP-2 or rhBMP-7 serially diluted; retained BMP detected with biotinylated anti-BMP antibodies; background without rhPln.247 subtracted; apparent Kd
[5] = biological target: recombinant human perlecan domain 1 proteoglycan rhPln.247 (human) (UniProt P98160); assay: as above; remark: listed apart in the source

recombinant human perlecan domain 1 proteoglycan rhPln.247 (human), sequence (P98160 22-247): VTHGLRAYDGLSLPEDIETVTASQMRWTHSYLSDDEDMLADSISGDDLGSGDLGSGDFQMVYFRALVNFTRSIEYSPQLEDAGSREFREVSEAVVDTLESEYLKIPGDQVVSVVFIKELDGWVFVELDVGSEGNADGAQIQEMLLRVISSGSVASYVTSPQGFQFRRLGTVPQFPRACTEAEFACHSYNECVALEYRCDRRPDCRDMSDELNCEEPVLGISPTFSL
recombinant human bone morphogenetic protein-2, sequence (P12643 283-396): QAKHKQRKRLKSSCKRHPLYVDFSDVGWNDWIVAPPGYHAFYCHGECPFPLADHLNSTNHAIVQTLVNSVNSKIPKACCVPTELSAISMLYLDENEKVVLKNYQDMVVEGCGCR

recombinant human bone morphogenetic protein-2 (from UniProt P12643 283-396) (ligand)
Kd [1]: 150 nM
Kd [2]: 0.15 nM
Kd [3]: 0.6 nM
Kd [4]: 0.573 nM
Kd [5]: 0.4 nM
